Source: article doi:10.1101/2023.06.16.545277, “VAMP2 regulates phase separation of alpha-synuclein” (bioRxiv, 2023)

Target: wild-type human full-length alpha-synuclein (human, UniProt P37840 1-140)
Experiment: NMR titration; 1H-15N-BEST-TROSY chemical shift perturbation; 40 μM 15N-labelled aSYN fixed, peptide titrated; 20 mM phosphate buffer, pH 7.0, 10% 2H2O, 298 K
Details: both partners purified

B1: JMD long peptide (peptide)
peptide: KLKRKYWWKNLKMM
notes: VAMP2, full length of the juxtamembrane (JM) domain, aa 83-96; also called native JMD long peptide; JM-domain of VAMP2, aa 83-96; source: synthetic peptide (custom synthesis, Proteogenix)
B1: binds.
